Data as given in patent US20030229207A1 (published 2003).

Experiments:
[1] = molecular target: rat CD5 antigen present on rat T cells (rat) (UniProt P51882); test: flow cytometry, rat lymph node cells 3 h after 0.5 mg/kg i.v.
[2] = molecular target: rat CD5 antigen present on rat T cells (rat) (UniProt P51882); test: flow cytometry, rat blood cells 3 h after 0.5 mg/kg i.v.
[3] = molecular target: rat CD5 antigen present on rat T cells (rat) (UniProt P51882); test: flow cytometry, rat spleen cells 3 h after 0.5 mg/kg i.v.
[4] = molecular target: T1, human CD5 cell differentiation marker (human, UniProt P06127 25-495); test: competition with 0.1 nM ^125I-cH65 IgG on Molt-4M cells, fitted with MacLigand
T1 construct: whole, on cells; Cell-surface CD5; also called CD5 antigen; gp67
T1 sequence (looked up): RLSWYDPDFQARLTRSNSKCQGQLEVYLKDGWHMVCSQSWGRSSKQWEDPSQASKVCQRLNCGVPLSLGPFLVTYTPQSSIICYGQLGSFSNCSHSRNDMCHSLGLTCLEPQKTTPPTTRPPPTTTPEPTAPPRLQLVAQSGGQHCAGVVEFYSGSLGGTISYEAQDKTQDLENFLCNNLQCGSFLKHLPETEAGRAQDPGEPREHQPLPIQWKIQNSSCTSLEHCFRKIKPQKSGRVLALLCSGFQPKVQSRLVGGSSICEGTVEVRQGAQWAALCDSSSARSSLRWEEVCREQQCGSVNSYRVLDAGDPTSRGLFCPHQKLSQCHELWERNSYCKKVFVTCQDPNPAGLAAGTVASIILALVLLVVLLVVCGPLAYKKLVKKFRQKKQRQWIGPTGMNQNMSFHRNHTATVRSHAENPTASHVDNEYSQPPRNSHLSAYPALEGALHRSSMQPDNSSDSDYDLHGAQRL
Method: Competitive binding was performed as follows: 100 μl of Molt-4M cells were washed two times in ice-cold DHB binding buffer (Dubellco's modified Eagle's medium (Gibco, 320-1965PJ), 1.0% BSA and 10 mM Hepes at pH 7.2.-7.4). Cells were resuspended in the same buffer, plated into 96 v-bottomed wells (Costar) at 3×10⁵ cells per well and pelleted at 4° C. by centrifugation for 5 min at 1,000 rpm using a Beckman JS 4.2 rotor; 50 μl of 2×-concentrated 0.1 nM ¹²⁵I-cH65 IgG in DHB was then added to each well and competed with 50 μl of 2×-concentrated cH65 IgG or humanized antibody in DHB at final antibody concentrations from 100 nM to 0.0017 nM. Humanized antibody was obtained from culture supernatants of Sp2/0 clone C1718 which expresses he3 IgG. The concentration of the antibody in the supernatants was established by ELISA using a chimeric antibody as a standard. The concentration of the antibody in the purified preparation was determined by […] to proceed at 4° C. for 5 hrs and was terminated by washing cells three times with 200 Al of DHB binding buffer by centrifugation for 5 min at 1,000 rpm. All buffers and operations were at 4° C. Radioactivity was determined by solubilizing cells in 100 μl of 1.0 M NaOH and counting in a Cobra II auto gamma counter (Packard). Data from binding experiments were analyzed by the weighted nonlinear least squares curve fitting program, MacLigand, a Macintosh version of the computer program “Ligand” from Munson, Analyt. Biochem., 107:220 (1980). Objective statistical criteria (F, test, extra sum squares principle) were used to evaluate goodness of fit and for discriminating between models. Nonspecific binding was treated as a parameter subject to error and was fitted simultaneously with other parameters.

[5] = molecular target: T1, human CD5 cell differentiation marker; test: FACS-based competitive assay, experiment 3; reference mouse H65 = 100%
[6] = molecular target: T1, human CD5 cell differentiation marker; test: FACS-based competitive assay, experiment 1; reference mouse H65 = 100%
[7] = molecular target: T1, human CD5 cell differentiation marker; test: FACS-based competitive assay, experiment 2; reference mouse H65 = 100%
[8] = molecular target: T1, human CD5 cell differentiation marker; test: FACS-based competitive assay, mean of 3 experiments ± SD; reference mouse H65 = 100%

rat CD5 antigen present on rat T cells (rat), sequence (P51882 24-491): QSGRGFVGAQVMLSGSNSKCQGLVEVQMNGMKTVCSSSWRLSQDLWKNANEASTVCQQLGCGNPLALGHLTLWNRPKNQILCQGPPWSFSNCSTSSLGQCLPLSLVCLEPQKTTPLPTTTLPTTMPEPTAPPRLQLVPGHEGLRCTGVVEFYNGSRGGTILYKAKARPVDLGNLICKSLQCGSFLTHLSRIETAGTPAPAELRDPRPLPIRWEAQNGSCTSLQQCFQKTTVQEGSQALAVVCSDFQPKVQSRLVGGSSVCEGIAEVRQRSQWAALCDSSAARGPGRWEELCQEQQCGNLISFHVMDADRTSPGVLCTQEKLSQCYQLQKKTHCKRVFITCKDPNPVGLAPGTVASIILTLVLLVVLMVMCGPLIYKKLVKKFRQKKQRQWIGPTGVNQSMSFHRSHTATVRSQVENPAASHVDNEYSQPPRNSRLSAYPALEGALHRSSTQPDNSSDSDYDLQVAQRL

## OX19 MoAb (antibody)
[1]
  % of CD4 cells positive for surface-bound mouse IgG1 (CD4/mIgG1): 96.2%
  % of CD8 cells positive for surface-bound mouse IgG1 (CD8/mIgG1): 96.8%
[2]
  % of CD4 cells positive for surface-bound mouse IgG1 (CD4/mIgG1): 96.2%
  % of CD8 cells positive for surface-bound mouse IgG1 (CD8/mIgG1): 70.2%
[3]
  % of CD4 cells positive for surface-bound mouse IgG1 (CD4/mIgG1): 84.8%
  % of CD8 cells positive for surface-bound mouse IgG1 (CD8/mIgG1): 73.6%

B1: he3 Fab (Fab, V domains shown)
VH: EIQLVQSGGGLVKPGGSVRISCAASGYTFTNYGMNWVRQAPGKGLEWMGWINTHTGEPTYADSFKGRFTFSLDDSKNTAYLQINSLRAEDTAVYFCTRRGYDWYFDVWGQGTTVTVSS
VL: DIQMTQSPSSLSASVGDRVTITCRASQDINSYLSWFQQKPGKAPKTLIYRANRLESGVPSRFSGSGSGTDYTLTISSLQYEDFGIYYCQQYDESPWTFGGGTKLEIK
notes: Fab (he3 kappa and Fd) expressed in E. coli E104 from pING4628; also called Moderate-Risk Fab
[4]
  Kd: 2.2 nM

B2: chimeric H65 IgG (antibody, V domains shown)
VH: QIQLVQSGPELKKPGETVKISCKASGYTFTNYGMNWVKQAPGKGLRWMGWINTHTGEPTYADDFKGRFAFSLETSASTAYLQINNLKNEDTATYFCTRRGYDWYFDVWGAGTTVTVSS
VL: DIKMTQSPSSMYASLGERVTITCKASQDINSYLSWFQQKPGKSPKTLIYRANRLVDGVPSRFSGSGSGQDYSLTISSLDYEDMGIYYCQQYDESPWTFGGGTKLEIK
notes: Light and heavy chain each consist of unmodified mouse V/J-segments fused to a human C-segment (human kappa / human gamma by the ELISA used); also called purified cH65 IgG
[5]
  cH65 Affinity Relative to H65 (100%): 96.3%
[6]
  cH65 Affinity Relative to H65 (100%): 113%
[4]
  Kd: 2.3 nM
[7]
  cH65 Affinity Relative to H65 (100%): 106%
[8]
  cH65 Affinity Relative to H65 (100%): 105%

B3: low risk humanized H65 (he1) IgG (antibody, V domains shown)
VH: QIQLVQSGPGLKKPGGSVRISCAASGYTFTNYGMNWVKQAPGKGLRWMGWINTHTGEPTYADDFKGRFTFSLDTSKSTAYLQINSLRAEDTATYFCTRRGYDWYFDVWGQGTTVTVSS
VL: DIQMTQSPSSMSASLGDRVTITCRASQDINSYLSWFQQKPGKSPKTLIYRANRLVDGVPSRFSGSGSGTDYTLTISSLQYEDFGIYYCQQYDESPWTFGGGTKLEIK
notes: Whole IgG with human constant regions (detected with anti-human kappa and anti-human gamma), expressed transiently in CHO-K1; also called he1 H65 antibody; hH65
[4]
  Kd: 2.1 nM

B4: chimeric H65 Fab (Fab, V domains shown)
VH: QIQLVQSGPELKKPGETVKISCKASGYTFTNYGMNWVKQAPGKGLRWMGWINTHTGEPTYADDFKGRFAFSLETSASTAYLQINNLKNEDTATYFCTRRGYDWYFDVWGAGTTVTVSS
VL: DIKMTQSPSSMYASLGERVTITCKASQDINSYLSWFQQKPGKSPKTLIYRANRLVDGVPSRFSGSGSGQDYSLTISSLDYEDMGIYYCQQYDESPWTFGGGTKLEIK
notes: Fab of the chimeric H65 antibody; also called Chimeric Fab
[4]
  Kd: 18.4 nM

B5: low-risk he1 Fab (Fab, V domains shown)
VH: QIQLVQSGPGLKKPGGSVRISCAASGYTFTNYGMNWVKQAPGKGLRWMGWINTHTGEPTYADDFKGRFTFSLDTSKSTAYLQINSLRAEDTATYFCTRRGYDWYFDVWGQGTTVTVSS
VL: DIQMTQSPSSMSASLGDRVTITCRASQDINSYLSWFQQKPGKSPKTLIYRANRLVDGVPSRFSGSGSGTDYTLTISSLQYEDFGIYYCQQYDESPWTFGGGTKLEIK
notes: also called hel Fab; Low-Risk Fab
[4]
  Kd: 14.3 nM
